Data published in paper PMC3115021, “Dynamics of Cdk1 Substrate Specificity during the Cell Cycle” (Molecular Cell, 2011).

B1: PDS1: GST-tagged purified yeast protein tested as Cdk1 substrate (protein, UniProt P40316 1-373, looked up)
Securin: MMPANEDKENNIVYTGNESSGINFPQTPAHLLKRSHSNILKPPVRLDQLKRDANSNNGNTLKYIQGGKEVSPTKRLHTHAQQQGRLPLAAKDNNRSKSFIFPETSNQSKDADLPQLQNTLSIRKNDQLRKLSQISRSRSRANHNDLLSNSRKLQKYGSVLGYNALPKMKSLVLKDLADSGKNEESSDDDEGNEDSESKLGKKLQSALLKQDSSDGENELNGGLGLFNEQGGLQQLIKNSTKNEQKTKNDKSDKTDDYDIEIAPQRQEPLPYVPEGYSPFQQDDIEKLKTFNSPYKLDLEDEDDTPDKVDLLPLEQIDEEGEKDETECITRNQEEGAALPLLSKNFKEVAAVPTMELVYSEEGLDPEELEDLVT
modifications: GST tag
notes: GST-tagged purified yeast protein tested as Cdk1 substrate
B2: SLI15: purified yeast protein tested as Cdk1 substrate (protein, UniProt P38283 1-698, looked up)
Inner centromere protein SLI15: MDWAIKAARKKTQRKPGSTRSIIETLDDLNNLTTDAHSEINQRLYESSEWLRNNVYMNTLKYEDKKMEESLISPENTHNKMDVEFPKMKGEYELSNSQNDAAKDVTKTPRNGLHNDKSITPKSLRRKEVTEGMNRFSIHDTNKSPVEPLNSVKVDANESEKSSPWSPYKVEKVLRESSKTSESPINTKRFDNQTWAAKEEMENEPILQALKKAESVKVKPPPNSGIARSQRRSNMFVPLPNKDPLIIQHIPPTKSSGSIPKVRTVKESPIAFKKKSTINSPAIRAVENSDTAGSTKASSVFDRLSSIPTKSFENKISRGNVGHKYSSSSIDLTGSPMKKVSQKFKSINSTDTDMQEALRDIFSVKNKITKNNSPKGKNSRKSSIPRFDKTSLKLTTHKKLAIIAEQKKKSKHSSDVHKTGSRPHSISPTKISVDSSSPSKEVKNYYQSPVRGYLRPTKASISPNKNKNLTTSQTPHRLKIKEKTLRKLSPNIADISKPESRKSKNYRLTNLQLLPPAEAERDDLKKKFDKRLSGIMRSQQEHHRRKQEKQKRMSHLEQDLKKQTSFSNDYKDIRLKESLAPFDNHVRDTINKNTAFSTDNILATINTVDHREIIGNVTPKIASVNDSLPEINTDSEDEASVTLAAWAKSPYLQEQLIRQQDINPQTIFGPIPPLHTDEIFPNPRLNRLKPRQIVPKRS
B3: PLM2: purified yeast protein tested as Cdk1 substrate (protein, UniProt Q04383 1-521, looked up)
Protein PLM2: MSHLFPPSSPVAGKPLESPQKEPGKLANTSVLTLGRKRYNYELEEYPTPDPSSSIGRQSSPVKDITSRLNETKSALSSPSKQEKVLAGPIEIELDASDPSRLAIGRKKSVCNIILPCRKNISRQHAFISYAADRNEIKLECNGTNGLSVHLPYSMQLHLVKPFPTRNFYKLVAEEPLTSQNTKQSHGKTLQKNQNFISFVLAKGETVTFPYIQGSFINFTGVTVCLSLKKVAPYPGDGNNNFDEENSTETEDELCLLTTTSDDFSWQKETPSMKFVPVEHSPRTEQISKPLLIASPALVKNSPISYRTTPQTSFVINQPSTPKKLKRKSISLKNNTIQETPLPKDKIIGTLSASTRSGGINEEESFAAVAKKTKELSSTTAIVSPAQKRLKTSLNIIPEISRSLSERGIRFDDLVHVLCNHLAFSNLQQTPLSQLQNINSNTSQLSKDELKKVLETISCIGIIVREGKDASGKPLEDEYYYDVENDDSDERKILYNSLKGRSRLRSCRKKHKQYFWKRPTK
B4: PXL1: purified yeast protein tested as Cdk1 substrate (protein, UniProt P36166 1-706, looked up)
Paxillin-like protein 1: MYNSIYGSPFPKINPKVRYKTALERAGFDTKPRNPFSSQRNASTGSLQASVKSPPITRQRNVSAAPSVPVTMKSAYTASSKSAYSSVKGESDIYPPPVLENSERRSVTPPKNSNFTSSRPSDISRSISRPSERASQEDPFRFERDLDRQAEQYAASRHTCKSPANKEFQAADNFPFNFEQEDAGNTEREQDLSPIERSFMMLTQNDTASVVNSMNQTDNRGVLDQKLGKEQQKEESSIEYESEGQQEDENDIESLNFEPDPKLQMNLENEPLQDDFPEAKQEEKNTEPKIPEINVTRESNTPSLTMNALDSKIYPDDNFSGLESSKEQKSPGVSSSSTKVEDLSLDGLNEKRLSITSSENVETPYTATNLQVEQLIAQLDDVSLSRNAKLDMNGNCLNAVDRKASRFKKSSAYLSGYPSMDIPVTQQTSIVQNSNTNLSRQTILVDKGDVDEDAPSESTTNGGTPIFYKFKQSNVEYSNNEGMGSQETFRTKLPTIEALQLQHKRNITDLREEIDNSKSNDSHVLPNGGTTRYSSDADYKETEPIEFKYPPGEGPCRACGLEVTGKRMFSKKENELSGQWHRECFKCIECGIKFNKHVPCYILGDEPYCQKHYHEENHSICKVCSNFIEGECLENDKVERFHVDCLNCFLCKTAITNDYYIFNGEIPLCGNHDMEALLKEGIDNATSSNDKNNTLSKRRTRLINFN

Target: T1, Cln2-Cdk1 (Saccharomyces cerevisiae, UniProt P00546+P20438)
T1 construct: We purified the four cyclin-Cdk1 complexes from yeast; made in house; host or cells: S. cerevisiae strain DMY305 (galactose-induced); Cks1 from bacteria
T1 sequence (P00546 2-298 limits assumed): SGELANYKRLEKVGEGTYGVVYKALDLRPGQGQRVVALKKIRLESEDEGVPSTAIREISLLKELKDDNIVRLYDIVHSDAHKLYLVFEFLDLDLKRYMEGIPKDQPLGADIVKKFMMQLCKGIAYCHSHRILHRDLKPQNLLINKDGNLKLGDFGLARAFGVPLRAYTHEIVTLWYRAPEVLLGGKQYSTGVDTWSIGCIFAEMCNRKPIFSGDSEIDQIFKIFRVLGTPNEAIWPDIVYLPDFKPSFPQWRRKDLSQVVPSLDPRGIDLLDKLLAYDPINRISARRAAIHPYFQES
T1 sequence (P20438 whole entry partner): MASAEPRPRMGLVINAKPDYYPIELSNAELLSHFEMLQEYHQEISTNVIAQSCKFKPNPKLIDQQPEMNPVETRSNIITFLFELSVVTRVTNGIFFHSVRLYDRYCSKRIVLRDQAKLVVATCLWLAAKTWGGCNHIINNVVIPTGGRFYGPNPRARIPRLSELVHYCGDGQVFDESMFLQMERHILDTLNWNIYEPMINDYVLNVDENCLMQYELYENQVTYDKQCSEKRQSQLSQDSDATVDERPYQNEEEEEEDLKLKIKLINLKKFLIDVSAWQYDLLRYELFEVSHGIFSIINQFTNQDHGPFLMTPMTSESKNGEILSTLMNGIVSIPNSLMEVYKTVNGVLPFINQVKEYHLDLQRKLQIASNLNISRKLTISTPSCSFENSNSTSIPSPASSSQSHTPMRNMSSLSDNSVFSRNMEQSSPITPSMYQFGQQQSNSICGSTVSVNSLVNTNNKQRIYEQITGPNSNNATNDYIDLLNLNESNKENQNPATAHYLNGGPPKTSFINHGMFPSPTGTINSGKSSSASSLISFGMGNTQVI
T1 sequence (P20486 whole entry partner): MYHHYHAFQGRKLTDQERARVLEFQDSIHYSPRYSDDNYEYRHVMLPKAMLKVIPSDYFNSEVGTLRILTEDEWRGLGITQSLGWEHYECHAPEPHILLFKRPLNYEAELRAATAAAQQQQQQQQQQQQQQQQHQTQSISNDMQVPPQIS
Assay: Quantitative phosphorylation assay of T33-Sic1ΔC constructs and recombinant substrates
Assay type: biochemical
Conditions: Table S2; purified protein substrate; relative values, not divided by [S]

Q: With B1 as the molecule, how does the “kcat/KM, Cln2” value read?
A: The value was 0.249 relative units.

Q: With B2 as the molecule, how does the “kcat/KM, Cln2” value read?
A: Its value is 0.422 relative units.

Q: With B3 as the molecule, how does the “kcat/KM, Cln2” value read?
A: The value was 0.428 relative units.

Q: With B4 as the molecule, how does the “kcat/KM, Cln2” value read?
A: The value was 0.031 relative units.

Target: T2, Clb2-Cdk1 (Saccharomyces cerevisiae, UniProt P00546+P24869)
T2 construct: We purified the four cyclin-Cdk1 complexes from yeast; made in house; host or cells: S. cerevisiae strain DOM0077 (gal-CLB2-TAP, sic1 deleted); Cks1 from bacteria
T2 sequence (P00546 2-298 limits assumed): as the sequence (P00546 2-298 limits assumed) above
T2 sequence (P24869 2-491 partner limits assumed): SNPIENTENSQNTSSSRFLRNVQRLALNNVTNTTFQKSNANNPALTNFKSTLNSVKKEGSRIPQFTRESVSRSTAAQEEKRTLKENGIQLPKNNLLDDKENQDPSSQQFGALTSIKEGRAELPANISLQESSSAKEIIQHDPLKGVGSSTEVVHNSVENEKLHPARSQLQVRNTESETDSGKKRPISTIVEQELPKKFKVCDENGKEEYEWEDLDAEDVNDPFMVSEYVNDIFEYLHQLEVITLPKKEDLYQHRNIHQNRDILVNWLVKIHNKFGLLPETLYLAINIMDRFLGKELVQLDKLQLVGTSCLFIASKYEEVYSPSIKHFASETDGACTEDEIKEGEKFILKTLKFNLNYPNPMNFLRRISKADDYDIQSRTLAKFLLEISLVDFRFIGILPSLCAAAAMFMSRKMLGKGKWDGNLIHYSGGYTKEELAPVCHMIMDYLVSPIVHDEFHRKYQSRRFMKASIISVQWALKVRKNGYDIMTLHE
T2 sequence (P20486 whole entry partner): as the sequence (P20486 whole entry partner) above
Assay: as above
Assay type: biochemical
Conditions: Table S2; purified protein substrate; relative values, not divided by [S]

Q: For B1, which “kcat/KM, Clb2” value is on record?
A: Its value is 0.049 relative units.

Q: With B2 as the molecule, how does the “kcat/KM, Clb2” value read?
A: The value was 0.109 relative units.

Q: Which “kcat/KM, Clb2” value does the source give for B3 here?
A: The value was 9.072 relative units.

Q: With B4 as the molecule, how does the “kcat/KM, Clb2” value read?
A: Its value is 0.571 relative units.

Target: T3, Clb3-Cdk1 (Saccharomyces cerevisiae, UniProt P00546+P24870)
T3 construct: We purified the four cyclin-Cdk1 complexes from yeast; made in house; host or cells: S. cerevisiae strain DOM0957 (gal-CLB3-TAP, sic1 deleted); Cks1 from bacteria
T3 sequence (P00546 2-298 limits assumed): as the sequence (P00546 2-298 limits assumed) above
T3 sequence (P24870 whole entry partner): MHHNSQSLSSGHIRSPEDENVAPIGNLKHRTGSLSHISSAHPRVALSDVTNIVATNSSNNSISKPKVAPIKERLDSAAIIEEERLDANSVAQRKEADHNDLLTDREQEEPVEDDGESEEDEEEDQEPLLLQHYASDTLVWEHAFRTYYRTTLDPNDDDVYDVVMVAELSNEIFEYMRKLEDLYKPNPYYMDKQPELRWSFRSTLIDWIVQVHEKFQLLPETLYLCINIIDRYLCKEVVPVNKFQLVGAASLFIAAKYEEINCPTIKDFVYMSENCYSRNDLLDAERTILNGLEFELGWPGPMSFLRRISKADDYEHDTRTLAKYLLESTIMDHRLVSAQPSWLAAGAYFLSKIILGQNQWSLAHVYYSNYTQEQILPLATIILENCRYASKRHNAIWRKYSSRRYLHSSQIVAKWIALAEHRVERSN
T3 sequence (P20486 whole entry partner): as the sequence (P20486 whole entry partner) above
Assay: as above
Assay type: biochemical
Conditions: Table S2; purified protein substrate; relative values, not divided by [S]

Q: With B1 as the molecule, how does the “kcat/KM, Clb3” value read?
A: The value was 0.015 relative units.

Q: How did the “kcat/KM, Clb3” value turn out when B2 was run?
A: Its value is 0.141 relative units.

Q: How did the “kcat/KM, Clb3” value turn out when B3 was run?
A: The value was 9.051 relative units.

Q: How did the “kcat/KM, Clb3” value turn out when B4 was run?
A: The value was 0.139 relative units.

Target: T4, Clb5-Cdk1 (Saccharomyces cerevisiae, UniProt P00546+P30283)
T4 construct: We purified the four cyclin-Cdk1 complexes from yeast; made in house; host or cells: S. cerevisiae strain DOM0076 (gal-CLB5-TAP, sic1 deleted); Cks1 from bacteria
T4 sequence (P00546 2-298 limits assumed): as the sequence (P00546 2-298 limits assumed) above
T4 sequence (P30283 whole entry partner): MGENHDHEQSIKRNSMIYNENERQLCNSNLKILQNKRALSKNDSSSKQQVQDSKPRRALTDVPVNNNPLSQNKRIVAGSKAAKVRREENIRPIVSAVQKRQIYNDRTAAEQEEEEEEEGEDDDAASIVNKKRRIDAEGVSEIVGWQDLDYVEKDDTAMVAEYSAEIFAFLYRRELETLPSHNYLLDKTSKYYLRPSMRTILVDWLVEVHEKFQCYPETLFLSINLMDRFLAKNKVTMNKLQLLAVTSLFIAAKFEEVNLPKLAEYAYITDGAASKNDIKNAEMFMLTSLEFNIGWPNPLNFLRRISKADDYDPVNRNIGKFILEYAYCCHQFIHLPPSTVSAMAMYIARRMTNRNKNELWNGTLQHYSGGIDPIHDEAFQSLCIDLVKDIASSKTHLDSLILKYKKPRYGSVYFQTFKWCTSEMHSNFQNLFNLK
T4 sequence (P20486 whole entry partner): as the sequence (P20486 whole entry partner) above
Assay: as above
Assay type: biochemical
Conditions: Table S2; purified protein substrate; relative values, not divided by [S]

Q: How did the “kcat/KM, Clb5” value turn out when B1 was run?
A: Its value is 0.008 relative units.

Q: Which “kcat/KM, Clb5” value does the source give for B2 here?
A: The value was 0.025 relative units.

Q: B3 was tested. Which “kcat/KM, Clb5” value did it give?
A: The value was 1.724 relative units.

Q: Which “kcat/KM, Clb5” value does the source give for B4 here?
A: Its value is 0.031 relative units.

Target: T5, Clb3hpm-Cdk1 (Saccharomyces cerevisiae, UniProt P00546+P24870)
T5 construct: made in house; host or cells: S. cerevisiae strain MK0168 (gal-CLB3hpm-TAP, sic1 deleted); Cks1 from bacteria
Assay: as above
Assay type: biochemical
Conditions: Table S2; purified protein substrate; relative values, not divided by [S]
Protocol: (§1) For the quantitative phosphorylation assays of T33-Sic1ΔC constructs and recombinant substrates, substrate concentrations were kept in the range of 0.5–2 μM (in the linear [S] versus v0 range, several-fold below the estimated KM value), and initial velocity conditions were defined as an initial substrate turnover of up to 10% of the total turnover. For the steady-state peptide kinetics of the Histone peptide PKTPKKAKKL, a similar assay composition was used as for protein substrates, and phosphocellulose paper was used for the quantification of the phosphorylated substrate.
(§2) Supplemental Experimental Procedures
(§3) Plasmid constructs and yeast strains
(§4) For tandem affinity purification (TAP) of cyclin-Cdk1 complexes, the cyclin genes were cloned into the 2 micron vector pRSAB1234 containing a GAL1 promoter and the C-terminal TAP-tag. To purify different 6His-T33-Sic1ΔC forms for kinase assays, the C-terminally truncated fragment of Sic1 (with a stop codon inserted after amino acid 215) was cloned into the NheI/BamHI site of the bacterial expression vector pET28a (Invitrogen). Mutagenesis of cyclins or substrates was performed using single-stranded pRSAB1234 or pET28a vector constructs as templates. The triple mutants in the hydrophobic patch (hpm) of Clb5 and Clb2 were described previously (Loog and Morgan, 2005), and the hpm of Clb3 (Phe-201, Leu-205 and Trp-208 mutated to alanines) was designed according to sequence homology with other B-type cyclins. In T33-Sic1ΔC constructs, the other Cdk sites bearing the consensus motif S/T-P were mutated to Ala-Ala in order to prevent any possible (pseudo)substrate competition. The other Cdk substrates were cloned as full-length forms into bacterial expression vectors pET28a or pGEX-4T-1. Cdh1 was purified using the baculovirus system and was a kind gift from Monica Rodrigo-Brenni (UCSF). […]
The […]
(§5) pRSAB1234 analogously to the cyclin-Cdk1 complexes. For C-terminal tagging of cyclin genes in their chromosomal loci, the Pringle method was applied (Longtine et al., 1998). Lists of plasmid […]
(§6) The TAP method was applied for purification of cyclin-Cdk1 complexes and Swe1 as described previously for Clb5-TAP-Cdk1 and Clb2-TAP-Cdk1 (Puig et al., 2001; Ubersax et al., 2003). […]
(§7) tagged recombinant T33-Sic1ΔC constructs and substrates were cloned into the pET28a vector and purified by standard cobalt affinity chromatography and elution with 200 mM imidazole. 6His-Fin1 was purified as described previously (Woodbury and Morgan, 2007). Substrates cloned into the pGEX-4T-1 were purified on glutathione agarose columns using 5 mM reduced glutathione for elution. Cks1 was purified as described previously (Reynard et al., 2000). The optimal working concentration for purified Cks1 was taken as 500 nM based on optimization performed for cyclin-Cdk1 preparations and T33-Sic1ΔC as a substrate.
(§8) For the quantitative phosphorylation assays of T33-Sic1ΔC constructs and recombinant substrates, substrate concentrations were kept in the range of 0.5-2 μM (in the linear [S] vs v0 range, several-fold below the estimated KM value), and the initial velocity conditions were defined as an initial substrate turnover ranging up to 10% of the total turnover. The latter was estimated by a long-term incubation with excess amounts of cyclin-Cdk1 and 32P-γ-ATP in the standard reaction mixture given below. About 1-10 nM of purified kinase complex was used, reaction aliquots were taken at two or more time points, and the reaction was stopped by SDS-PAGE sample buffer. The relative kcat/KM values for the substrates were calculated as the ratio of v0/[S], which was determined from at least two independent experiments. The basal composition of the assay mixture contained 50 mM Hepes, pH 7.4, 100 mM NaCl, 0.1% NP-40, 20 mM imidazole, 0.1 mg/ml 2HA peptide, 2% glycerol, 2 mM EGTA, 0.2 mg/ml BSA, […], and 500 μM ATP (with added 32P-γ-ATP (Perkin Elmer)).
(§9) About 1-10 nM of purified kinase complex was used, reaction aliquots were taken at two or more […]

Q: How did the “kcat/KM, Clb3hpm” value turn out when B1 was run?
A: The value was 0.005 relative units.

Q: For B2, which “kcat/KM, Clb3hpm” value is on record?
A: The value was 0.032 relative units.

Q: Which “kcat/KM, Clb3hpm” value does the source give for B3 here?
A: The value was 1.144 relative units.

Q: B4 was tested. Which “kcat/KM, Clb3hpm” value did it give?
A: The value was 0.033 relative units.

Target: T6, Clb2hpm-Cdk1 (Saccharomyces cerevisiae, UniProt P00546)
T6 construct: made in house; host or cells: S. cerevisiae strain DOM0964 (gal-CLB2hpm-TAP, sic1 deleted); Cks1 from bacteria
T6 sequence (P00546 2-298 limits assumed): as the sequence (P00546 2-298 limits assumed) above
Assay: as above
Assay type: biochemical
Conditions: Table S2; purified protein substrate; relative values, not divided by [S]
Protocol: as §1, §2, §3, §4
The […]
as §5, §6, §7, §8, §9

Q: With B1 as the molecule, how does the “kcat/KM, Clb2hpm” value read?
A: The value was 0.035 relative units.

Q: B2 was tested. Which “kcat/KM, Clb2hpm” value did it give?
A: Its value is 0.060 relative units.

Q: With B3 as the molecule, how does the “kcat/KM, Clb2hpm” value read?
A: The value was 6.351 relative units.

Q: For B4, which “kcat/KM, Clb2hpm” value is on record?
A: Its value is 0.244 relative units.

Target: T7, Clb5hpm-Cdk1 (Saccharomyces cerevisiae, UniProt P00546)
T7 construct: made in house; host or cells: S. cerevisiae strain DOM0963 (gal-CLB5hpm-TAP, sic1 deleted); Cks1 from bacteria
T7 sequence (P00546 2-298 limits assumed): as above
Assay: as above
Assay type: biochemical
Conditions: Table S2; purified protein substrate; relative values, not divided by [S]
Protocol: as §1, §2, §3, §4
The […]
as §5, §6, §7, §8, §9

Q: B1 was tested. Which “kcat/KM, Clb5hpm” value did it give?
A: The value was 0.002 relative units.

Q: With B2 as the molecule, how does the “kcat/KM, Clb5hpm” value read?
A: The value was 0.004 relative units.

Q: Which “kcat/KM, Clb5hpm” value does the source give for B3 here?
A: The value was 0.428 relative units.

Q: With B4 as the molecule, how does the “kcat/KM, Clb5hpm” value read?
A: The value was 0.015 relative units.
